Data as given in the supplement of paper PMC9876800.

These substances were tested on peptide library, one residue held at a place counted from the S/T acceptor (assay: relative phosphorylation of the sub-library (ratio to the mean residue at this position); human; higher = residue favoured). Conditions: E fixed; at +4.
How it was run: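 Relative sub-library phosphorylation is the ratio of each sub-library's signal to the mean residue at that position. The signal came from phosphorimaging of spots on streptavidin membranes, quantified by densitometry, after purified recombinant kinases reacted with biotinylated degenerate peptide sub-libraries in 384-well plates. Reactions held 50 μM peptide and 50 μM ATP spiked with γ-32P-ATP for 90 min under kinase-specific conditions.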

Sequence of TTK, construct: Full length (P33981 whole entry, looked up): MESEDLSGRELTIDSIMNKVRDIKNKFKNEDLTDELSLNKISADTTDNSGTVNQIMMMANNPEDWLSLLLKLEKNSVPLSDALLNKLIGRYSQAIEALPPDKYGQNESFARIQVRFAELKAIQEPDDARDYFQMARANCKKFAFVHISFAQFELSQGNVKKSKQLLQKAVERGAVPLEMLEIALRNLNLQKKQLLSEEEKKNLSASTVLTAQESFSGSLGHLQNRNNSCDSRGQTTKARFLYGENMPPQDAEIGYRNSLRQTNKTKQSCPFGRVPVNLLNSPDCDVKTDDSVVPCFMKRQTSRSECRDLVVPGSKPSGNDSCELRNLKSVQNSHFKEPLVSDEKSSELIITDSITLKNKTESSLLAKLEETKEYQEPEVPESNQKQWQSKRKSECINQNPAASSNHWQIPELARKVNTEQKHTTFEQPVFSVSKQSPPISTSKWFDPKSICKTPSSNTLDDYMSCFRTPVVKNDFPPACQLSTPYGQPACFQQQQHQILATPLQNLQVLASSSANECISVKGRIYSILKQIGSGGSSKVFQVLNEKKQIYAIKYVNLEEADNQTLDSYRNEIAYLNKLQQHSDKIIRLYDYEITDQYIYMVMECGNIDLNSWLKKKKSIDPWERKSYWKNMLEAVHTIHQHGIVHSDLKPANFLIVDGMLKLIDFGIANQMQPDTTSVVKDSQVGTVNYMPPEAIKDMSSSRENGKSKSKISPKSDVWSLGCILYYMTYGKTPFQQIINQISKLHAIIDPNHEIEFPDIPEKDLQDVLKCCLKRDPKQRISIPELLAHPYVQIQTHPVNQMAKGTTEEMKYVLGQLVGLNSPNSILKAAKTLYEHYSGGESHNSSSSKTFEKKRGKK
Sequence of RPS6KA6, construct: Full length (Q9UK32 whole entry, looked up): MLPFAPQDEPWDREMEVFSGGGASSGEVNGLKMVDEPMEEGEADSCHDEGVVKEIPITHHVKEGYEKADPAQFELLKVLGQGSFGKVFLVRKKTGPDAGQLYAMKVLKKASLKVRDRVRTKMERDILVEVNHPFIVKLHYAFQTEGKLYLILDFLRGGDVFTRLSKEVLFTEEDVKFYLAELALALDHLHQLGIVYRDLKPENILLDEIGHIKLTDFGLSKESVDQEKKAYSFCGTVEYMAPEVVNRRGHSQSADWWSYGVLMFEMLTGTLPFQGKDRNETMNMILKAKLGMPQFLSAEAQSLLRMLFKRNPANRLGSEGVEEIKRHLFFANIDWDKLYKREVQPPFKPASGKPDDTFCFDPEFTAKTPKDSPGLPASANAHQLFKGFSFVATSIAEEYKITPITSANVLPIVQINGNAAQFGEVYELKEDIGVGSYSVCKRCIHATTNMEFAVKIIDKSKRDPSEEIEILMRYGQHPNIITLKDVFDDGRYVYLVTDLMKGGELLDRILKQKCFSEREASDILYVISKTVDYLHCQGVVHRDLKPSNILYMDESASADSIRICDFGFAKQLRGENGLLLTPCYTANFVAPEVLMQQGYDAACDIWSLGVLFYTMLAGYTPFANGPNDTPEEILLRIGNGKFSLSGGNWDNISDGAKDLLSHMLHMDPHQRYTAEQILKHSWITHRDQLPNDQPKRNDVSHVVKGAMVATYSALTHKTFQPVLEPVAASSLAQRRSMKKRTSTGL
Sequence of CLK3, construct: Full length (P49761 whole entry, looked up): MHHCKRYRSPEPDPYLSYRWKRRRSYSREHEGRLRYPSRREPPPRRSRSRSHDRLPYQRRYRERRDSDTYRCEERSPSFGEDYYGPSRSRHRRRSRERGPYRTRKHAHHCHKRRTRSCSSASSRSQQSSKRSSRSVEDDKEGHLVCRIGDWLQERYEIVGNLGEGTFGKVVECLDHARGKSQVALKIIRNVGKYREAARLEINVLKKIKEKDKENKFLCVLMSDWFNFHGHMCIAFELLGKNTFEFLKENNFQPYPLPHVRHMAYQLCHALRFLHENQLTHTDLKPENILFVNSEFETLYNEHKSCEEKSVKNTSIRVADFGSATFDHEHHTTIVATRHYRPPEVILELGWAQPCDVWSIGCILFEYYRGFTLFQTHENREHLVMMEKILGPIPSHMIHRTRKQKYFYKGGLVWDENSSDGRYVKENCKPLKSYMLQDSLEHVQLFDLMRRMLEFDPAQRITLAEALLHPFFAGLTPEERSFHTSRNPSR
Sequence of PAK3, construct: Full length (O75914 whole entry, looked up): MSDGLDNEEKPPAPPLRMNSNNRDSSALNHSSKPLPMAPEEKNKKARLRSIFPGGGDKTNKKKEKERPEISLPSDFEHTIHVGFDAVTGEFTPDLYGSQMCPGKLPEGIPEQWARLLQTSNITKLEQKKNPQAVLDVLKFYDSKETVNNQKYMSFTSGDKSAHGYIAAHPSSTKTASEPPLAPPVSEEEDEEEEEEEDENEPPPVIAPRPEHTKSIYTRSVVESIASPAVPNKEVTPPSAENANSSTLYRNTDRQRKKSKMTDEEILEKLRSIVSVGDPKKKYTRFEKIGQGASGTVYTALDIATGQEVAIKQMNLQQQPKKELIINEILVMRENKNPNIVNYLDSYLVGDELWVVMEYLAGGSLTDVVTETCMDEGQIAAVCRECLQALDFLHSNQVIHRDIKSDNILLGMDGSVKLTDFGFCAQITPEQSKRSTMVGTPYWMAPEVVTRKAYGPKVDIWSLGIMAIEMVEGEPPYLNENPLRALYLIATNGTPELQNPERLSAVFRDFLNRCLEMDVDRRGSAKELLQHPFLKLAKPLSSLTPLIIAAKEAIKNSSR
Sequence of MASTL, construct: Full length (Q96GX5 whole entry, looked up): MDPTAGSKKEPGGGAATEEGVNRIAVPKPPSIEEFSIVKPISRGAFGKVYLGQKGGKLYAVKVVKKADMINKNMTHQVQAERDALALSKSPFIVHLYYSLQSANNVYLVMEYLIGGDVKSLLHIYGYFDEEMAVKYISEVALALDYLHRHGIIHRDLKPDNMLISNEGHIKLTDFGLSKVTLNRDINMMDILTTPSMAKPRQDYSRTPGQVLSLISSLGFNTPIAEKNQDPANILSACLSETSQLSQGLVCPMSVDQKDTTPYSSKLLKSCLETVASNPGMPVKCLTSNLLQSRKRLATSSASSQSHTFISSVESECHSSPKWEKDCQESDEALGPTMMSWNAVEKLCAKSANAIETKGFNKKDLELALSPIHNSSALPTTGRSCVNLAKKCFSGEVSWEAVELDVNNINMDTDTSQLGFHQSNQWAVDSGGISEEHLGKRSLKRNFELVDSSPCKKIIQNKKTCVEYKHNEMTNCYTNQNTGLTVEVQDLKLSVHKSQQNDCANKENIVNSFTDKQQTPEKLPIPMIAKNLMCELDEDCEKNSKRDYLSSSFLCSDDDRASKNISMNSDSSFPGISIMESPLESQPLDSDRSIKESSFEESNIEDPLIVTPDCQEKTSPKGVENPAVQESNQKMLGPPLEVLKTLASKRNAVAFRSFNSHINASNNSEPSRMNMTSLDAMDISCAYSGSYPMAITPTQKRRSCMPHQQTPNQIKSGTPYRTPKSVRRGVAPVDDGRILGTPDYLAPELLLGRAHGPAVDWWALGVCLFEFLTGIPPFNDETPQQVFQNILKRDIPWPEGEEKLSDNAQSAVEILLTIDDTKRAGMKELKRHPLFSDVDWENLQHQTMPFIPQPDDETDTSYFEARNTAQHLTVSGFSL
Sequence of MELK, construct: aa1-340 (Q14680 1-340, looked up): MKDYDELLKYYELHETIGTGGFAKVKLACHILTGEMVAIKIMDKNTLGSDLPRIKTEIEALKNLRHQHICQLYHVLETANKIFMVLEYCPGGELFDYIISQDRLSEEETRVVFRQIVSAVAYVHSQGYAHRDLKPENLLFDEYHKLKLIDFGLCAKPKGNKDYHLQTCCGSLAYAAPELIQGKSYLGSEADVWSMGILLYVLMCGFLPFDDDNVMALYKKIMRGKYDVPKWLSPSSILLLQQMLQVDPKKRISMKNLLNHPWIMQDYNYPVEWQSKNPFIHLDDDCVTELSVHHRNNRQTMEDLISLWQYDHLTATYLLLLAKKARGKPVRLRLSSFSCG
Sequence of PRPF4B, construct: aa519-end (Q13523 519-1007, looked up): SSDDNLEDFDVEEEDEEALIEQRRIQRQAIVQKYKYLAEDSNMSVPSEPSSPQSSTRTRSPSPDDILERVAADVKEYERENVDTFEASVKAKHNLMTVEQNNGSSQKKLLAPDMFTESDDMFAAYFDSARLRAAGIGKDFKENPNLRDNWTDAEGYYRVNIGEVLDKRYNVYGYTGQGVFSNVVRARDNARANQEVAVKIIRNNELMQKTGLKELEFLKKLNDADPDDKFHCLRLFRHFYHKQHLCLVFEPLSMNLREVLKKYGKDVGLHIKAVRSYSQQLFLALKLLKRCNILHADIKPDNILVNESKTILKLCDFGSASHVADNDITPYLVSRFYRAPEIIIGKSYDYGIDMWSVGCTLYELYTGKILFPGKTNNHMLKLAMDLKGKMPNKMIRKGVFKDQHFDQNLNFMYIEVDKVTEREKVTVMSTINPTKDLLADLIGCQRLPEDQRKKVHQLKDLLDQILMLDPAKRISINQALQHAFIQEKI
Sequence of GRK5, construct: Full length (P34947 whole entry, looked up): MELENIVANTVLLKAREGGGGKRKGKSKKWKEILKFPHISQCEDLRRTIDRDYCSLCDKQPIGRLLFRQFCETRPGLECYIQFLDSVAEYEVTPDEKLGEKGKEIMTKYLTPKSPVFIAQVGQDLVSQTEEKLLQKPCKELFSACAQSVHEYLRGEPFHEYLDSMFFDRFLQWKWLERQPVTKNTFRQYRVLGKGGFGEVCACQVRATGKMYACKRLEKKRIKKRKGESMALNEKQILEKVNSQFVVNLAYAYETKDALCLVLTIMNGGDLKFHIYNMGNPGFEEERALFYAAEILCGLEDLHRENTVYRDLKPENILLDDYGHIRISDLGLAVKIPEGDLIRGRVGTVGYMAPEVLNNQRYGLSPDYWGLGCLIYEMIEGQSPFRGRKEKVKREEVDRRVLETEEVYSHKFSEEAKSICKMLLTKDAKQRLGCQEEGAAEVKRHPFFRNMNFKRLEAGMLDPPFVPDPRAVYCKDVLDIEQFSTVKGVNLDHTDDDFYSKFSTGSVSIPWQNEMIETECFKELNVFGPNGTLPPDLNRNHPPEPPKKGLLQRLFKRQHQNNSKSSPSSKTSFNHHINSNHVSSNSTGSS

| Substance | relative phosphorylation |
| --- | --- |
| CLK3, construct: Full length (from UniProt P49761) | 1.34 |
| RPS6KA6, construct: Full length (from UniProt Q9UK32) | 1.36 |
| GRK5, construct: Full length (from UniProt P34947) | 1.25 |
| TTK, construct: Full length (from UniProt P33981) | 0.39 |
| PRPF4B, construct: aa519-end (from UniProt Q13523) | 0.808 |

Same assay, conditions: E fixed; at -1

| Substance | relative phosphorylation |
| --- | --- |
| PAK3, construct: Full length (from UniProt O75914) | 0.463 |
| MASTL, construct: Full length (from UniProt Q96GX5) | 0.769 |
| MELK, construct: aa1-340 (from UniProt Q14680) | 0.469 |
| CLK3, construct: Full length (from UniProt P49761) | 0.915 |
| RPS6KA6, construct: Full length (from UniProt Q9UK32) | 0.635 |
| GRK5, construct: Full length (from UniProt P34947) | 0.863 |
| TTK, construct: Full length (from UniProt P33981) | 0.866 |
| PRPF4B, construct: aa519-end (from UniProt Q13523) | 1.25 |

Same assay, conditions: E fixed; at -2

| Substance | relative phosphorylation |
| --- | --- |
| PAK3, construct: Full length (from UniProt O75914) | 0.19 |
| MASTL, construct: Full length (from UniProt Q96GX5) | 0.611 |
| MELK, construct: aa1-340 (from UniProt Q14680) | 0.305 |
| CLK3, construct: Full length (from UniProt P49761) | 1.8 |
| RPS6KA6, construct: Full length (from UniProt Q9UK32) | 0.549 |
| GRK5, construct: Full length (from UniProt P34947) | 1.01 |
| TTK, construct: Full length (from UniProt P33981) | 2.91 |
| PRPF4B, construct: aa519-end (from UniProt Q13523) | 0.553 |

Same assay, conditions: E fixed; at -3

| Substance | relative phosphorylation |
| --- | --- |
| PAK3, construct: Full length (from UniProt O75914) | 0.415 |
| MASTL, construct: Full length (from UniProt Q96GX5) | 0.679 |
| MELK, construct: aa1-340 (from UniProt Q14680) | 0.256 |
| CLK3, construct: Full length (from UniProt P49761) | 1.19 |
| RPS6KA6, construct: Full length (from UniProt Q9UK32) | 0.417 |
| GRK5, construct: Full length (from UniProt P34947) | 1.19 |
| TTK, construct: Full length (from UniProt P33981) | 1.94 |
| PRPF4B, construct: aa519-end (from UniProt Q13523) | 0.512 |

Same assay, conditions: E fixed; at -4

| Substance | relative phosphorylation |
| --- | --- |
| PAK3, construct: Full length (from UniProt O75914) | 0.665 |
| MASTL, construct: Full length (from UniProt Q96GX5) | 0.717 |
| MELK, construct: aa1-340 (from UniProt Q14680) | 0.658 |
| CLK3, construct: Full length (from UniProt P49761) | 1.38 |
| RPS6KA6, construct: Full length (from UniProt Q9UK32) | 0.96 |
| GRK5, construct: Full length (from UniProt P34947) | 1.15 |
| TTK, construct: Full length (from UniProt P33981) | 1.47 |
| PRPF4B, construct: aa519-end (from UniProt Q13523) | 1.16 |

Same assay, conditions: E fixed; at -5

| Substance | relative phosphorylation |
| --- | --- |
| PAK3, construct: Full length (from UniProt O75914) | 0.547 |
| MASTL, construct: Full length (from UniProt Q96GX5) | 0.639 |
| MELK, construct: aa1-340 (from UniProt Q14680) | 0.392 |
| CLK3, construct: Full length (from UniProt P49761) | 1.04 |
| RPS6KA6, construct: Full length (from UniProt Q9UK32) | 0.608 |
| GRK5, construct: Full length (from UniProt P34947) | 1.05 |
| TTK, construct: Full length (from UniProt P33981) | 0.983 |
| PRPF4B, construct: aa519-end (from UniProt Q13523) | 0.966 |

Same assay, conditions: F fixed; at +1

| Substance | relative phosphorylation |
| --- | --- |
| PAK3, construct: Full length (from UniProt O75914) | 1.14 |
| MASTL, construct: Full length (from UniProt Q96GX5) | 1.95 |
| MELK, construct: aa1-340 (from UniProt Q14680) | 2.31 |
| CLK3, construct: Full length (from UniProt P49761) | 0.282 |
| RPS6KA6, construct: Full length (from UniProt Q9UK32) | 1.16 |
| GRK5, construct: Full length (from UniProt P34947) | 0.966 |
| TTK, construct: Full length (from UniProt P33981) | 0.541 |
| PRPF4B, construct: aa519-end (from UniProt Q13523) | 0.507 |

Same assay, conditions: F fixed; at +2

| Substance | relative phosphorylation |
| --- | --- |
| PAK3, construct: Full length (from UniProt O75914) | 1.37 |
| MASTL, construct: Full length (from UniProt Q96GX5) | 1.38 |
| MELK, construct: aa1-340 (from UniProt Q14680) | 0.923 |
| CLK3, construct: Full length (from UniProt P49761) | 0.536 |
| RPS6KA6, construct: Full length (from UniProt Q9UK32) | 0.623 |
| GRK5, construct: Full length (from UniProt P34947) | 0.879 |
| TTK, construct: Full length (from UniProt P33981) | 0.748 |
| PRPF4B, construct: aa519-end (from UniProt Q13523) | 1.27 |

Same assay, conditions: F fixed; at +3

| Substance | relative phosphorylation |
| --- | --- |
| PAK3, construct: Full length (from UniProt O75914) | 1.37 |
| MASTL, construct: Full length (from UniProt Q96GX5) | 1.3 |
| MELK, construct: aa1-340 (from UniProt Q14680) | 1.21 |
| CLK3, construct: Full length (from UniProt P49761) | 0.348 |
| RPS6KA6, construct: Full length (from UniProt Q9UK32) | 0.837 |
| GRK5, construct: Full length (from UniProt P34947) | 1.06 |
| TTK, construct: Full length (from UniProt P33981) | 1.48 |
| PRPF4B, construct: aa519-end (from UniProt Q13523) | 0.722 |

Same assay, conditions: F fixed; at +4

| Substance | relative phosphorylation |
| --- | --- |
| PAK3, construct: Full length (from UniProt O75914) | 0.847 |
| MASTL, construct: Full length (from UniProt Q96GX5) | 0.962 |
| MELK, construct: aa1-340 (from UniProt Q14680) | 0.987 |
| CLK3, construct: Full length (from UniProt P49761) | 0.694 |
| RPS6KA6, construct: Full length (from UniProt Q9UK32) | 0.671 |
| GRK5, construct: Full length (from UniProt P34947) | 0.823 |
| TTK, construct: Full length (from UniProt P33981) | 0.895 |
| PRPF4B, construct: aa519-end (from UniProt Q13523) | 0.958 |

Same assay, conditions: F fixed; at -1

| Substance | relative phosphorylation |
| --- | --- |
| PAK3, construct: Full length (from UniProt O75914) | 0.752 |
| MASTL, construct: Full length (from UniProt Q96GX5) | 0.948 |
| MELK, construct: aa1-340 (from UniProt Q14680) | 0.78 |
| CLK3, construct: Full length (from UniProt P49761) | 0.306 |
| RPS6KA6, construct: Full length (from UniProt Q9UK32) | 0.525 |
| GRK5, construct: Full length (from UniProt P34947) | 0.867 |
| TTK, construct: Full length (from UniProt P33981) | 0.671 |
| PRPF4B, construct: aa519-end (from UniProt Q13523) | 0.81 |
